Measured values as given in patent US11939377B2, “Affinity matured CD22-specific monoclonal antibody and uses thereof” (The U.S.A., as represented by the Secretary, Department of …, priority 2018, dated 2024).

Experiments:
[1] = system: CD22 expression on ALL and DLBCL cell lines (Nalm6, Kopn8, SEM, Pfeiffer, Toledo, PDX); experiment: CD22 expression on leukemia/lymphoma cells by flow cytometry after drug exposure in vitro; assay type: cell-based, human; conditions: Enzastaurin 10 μM, Staurosporine 100 μM, 24 hours
Experimental: FIGS. 3A-3D: (FIG. 3A) Four cell lines (Nalm6, Kopn8, Pfieffer and Toldeo) were co-incubated with 1 ng/ml Bryostatin 1 for 24 hours and analyzed using flow cytometry one day after Bryostatin 1 exposure. Site density was analyzed using standardized Quantibrite-PE beads. (FIG. 3B) Cell lines were co-incubated with 1 ng/ml Bryostatin 1 for 24 hours, washed, and analyzed using flow cytometry at 1 and 7 days after Bryostatin 1 exposure. Fold change was calculated based on site density: (Cell line Bryostatin 1—Cell line DMSO)/Cell line DMSO. (FIG. 3C) NSG mice were injected with 1×10^6 GPF-positive Nalm6 leukemia cells on Day 0. Bryostatin 1 was administered at 0.8 μg/kg on Day 3. Mice were sacrificed 7 and 12 days after Bryostatin 1 injection and CD22 was evaluated by flow cytometry. (FIG. 3D) CD22-low relapse PDX cell line was cultured in vitro with 1 nmol/L Bryostatin 1 for 24 hours and measured for CD22 expression using CD22 antibody.
FIGS. 10A-10E: (FIG. 10A) Three cell lines (Toldeo, Kopn8 and Nalm6) were co-incubated with Bryostatin 1 at varying concentrations for 24 hours. At 24 hours, cells were collected for protein kinase C (PKC)-βII isoform analysis by western blot. (FIG. 10B) KOPN8 or SEM cell lines were exposed to Bryostatin 1 for 16, 24, 48 or 72 hours. RNA was extracted from cells and analyzed using RNAseq. (FIG. 10C) Immunofluorescent staining of CD22 was conducted through permeabilization followed by staining of CD22. (FIG. 10D) Four cell lines were co-incubated with various combinations of Enzastaurin (10 μM), Staurosporine (100 μM), or Bryostatin 1 (1 nM) for 24 hours. CD22 expression was assessed using flow cytometry. MFI fold change=CD22 MFI^Bryostatin1/CD22 MFI^DMSO. (FIG. 10E) Cell lines were co-incubated with 1 nM Bryostatin 1 for 24 hours and measured for CD22 expression using CD22-PE antibody. MFI fold change=CD22 MFI^Bryostatin 1/CD22 MFI^DMSO.
FIG. 11: CD22^lo or parental Nalm6 cell lines were exposed to 1 ng/ml Bryostatin 1 for 24 hours. CD22 expression was assessed using flow cytometry.
For all in vitro experiments and tumor/CAR pretreatment prior to intravenous injection, Bryostatin 1 was administered to cells at a concentration of 1 ng/mL. Dimethyl sulfoxide (DMSO) vehicle control was administered to control-treated cells at an equal volume. Prior to co-culture or intravenous injection, Bryostatin 1- and DMSO-treated cells were washed 3x in sterile PBS. For all in vivo experiments, Bryostatin 1 was diluted in PBS and administered via intraperitoneal injection at a dose of 40 μg/kg (1 μg/25 g mouse). For control-treated groups, an equal volume of DMSO was diluted in PBS and administered in the same manner
FACS analysis of cell surface CAR and protein expression was performed using an LSR II Fortessa flow cytometer (BD Biosciences). CD22-CAR was detected by incubation with 22-Fc (R&D Systems), followed by incubation with human IgG-specific PE-F(ab)2 (Thermo Fisher Scientific). The following human monoclonal antibodies were used for detection of cell surface proteins: CD22-APC, CD22-PE, CD19-Pacific Blue, CD45-PerCP/Cy5.5, CD3-APC/Cy7, PD1-PE/Cy7, LAG3-APC, TIM3-Pacific Blue, CD8-APC, CD8-PE/Cy7, CD45RA-APC, CD45RO-PE/Cy7, CCR7-Pacific Blue, CD4-Pacific Blue, CD69-APC (all from BioLegend). CD22 site density was determined using QuantiBrite-PE beads (BD Biosciences) using methods previously described (Jasper et al., Cytometry B Clin Cytom 80(2):83-90, 2011). Dead cells were identified using eFluor 506 fixable viability dye (Thermo Fisher Scientific). GFP-expressing leukemia cells were identified through the FITC channel.

[2] = target: CD22 extracellular domain (ECD) (Homo sapiens, UniProt P20273); experiment: BIAcore surface plasmon resonance of scFv binding to immobilized CD22 ECD-Fc
Experimental: FIGS. 13A-13F: (FIG. 13A) BIAcore analysis was used to evaluate association and dissociation curves of various scFvs. […] (FIG. 13B) CD22^V1 or CD22 CART were co-cultured with CD22^neg or CD22^lo leukemia and evaluated at 24 hours for PD1 expression through flow cytometry on a Fortessa flow machine. (FIGS. 13C-13F) Mice were injected with CD22^lo or Nalm6 leukemia on Day 0. […] Bone marrow cells were stained for flow cytometry and analyzed on Fortessa flow machine. Statistics were calculated using unpaired t-test (** p<0.0021).
Purified CD22 ECD-Fc fusion protein was diluted in 10 mM acetic acid buffer, pH 5.0, immobilized on a CMS biosensor chip for 1400 RU using an amine coupling kit. The running buffer was HBS-EP (10 mM HEPES, pH 7.4, 150 mM NaCl, 3 mM EDTA, 0.05% surfactant P20). The scFvs diluted in running buffer were allowed to flow through the cells at concentrations 0.32, 1.6, 8, 40 and 200 nM. After a 10-minute of dissociation, the chip was regenerated with 10 mM acetic acid, pH 4.0, 0.5 M NaCl. The data were fitted with 1:1 binding model and the dissociation rate constant was estimated with the BIAevaluation software.

Row | Molecule | upregulation of CD22 [1] | affinity relative to original scFv m971 ([2]; as measured by BIAcore) | Kd ([2]; scFv, bound from instrument limit kd) [nM] | Kd ([2]; scFv, bound from instrument limit kd 1.0×10^−5 / 5.6×10^5) [nM] | calculated dissociation rate constant kd ([2]; scFv, lower than the kd measurable by BIAcore X-100 (1.0×10^−5 l/s)) [L/s]
1 | CN[C@@H]1C[C@H]2O[C@@](C)([C@@H]1OC)n1c3ccccc3c3c4c(c5c6ccccc6n2c5c31)C(=O)NC4 [Staurosporine] | neither the PKCβII inhibitor, Enzastaurin, nor a broad PKC inhibitor, Staurosporine, was able to upregulate CD22 |  |  |  | 
2 | Cn1cc(C2=C(c3cn(C4CCN(Cc5ccccn5)CC4)c4ccccc34)C(=O)NC2=O)c2ccccc21 [Enzastaurin] | neither the PKCβII inhibitor, Enzastaurin, nor a broad PKC inhibitor, Staurosporine, was able to upregulate CD22 |  |  |  | 
3 | m971-L7: affinity matured human monoclonal antibody specific for CD22; VH SEQ ID NO: 4, VL SEQ ID NO: 5, scFv SEQ ID NO: 6 (antibody, V domains shown) VH: QVQLQQSGPGMVKPSQTLSLTCAISGDSVSSNSVAWNWIRQSPSRGLEWLGRTYYRSTWYNDYAVSMKSRITINPDTNKNQFSLQLNSVTPEDTAVYYCAREVTGDLEDAFDIWGQGTMVTVSS VL: DIQMIQSPSSLSASVGDRVTITCRASQTIWSYLNWYRQRPGEAPNLLIYAASSLQSGVPSRFSGRGSGTDFTLTISSLQAEDFATYYCQQSYSIPQTFGQGTKLEIK |  | more than 1000 fold | < 0.018 | < 0.018 | 1.1e-06
